B1: Mitogen-activated protein kinase kinase kinase kinase 4 (Mus musculus), P97820 (parent)
chain: MANDSPAKSLVDIDLSSLRDPAGIFELVEVVGNGTYGQVYKGRHVKTVTAAIKVMDVTEDEEEEITLEINMLKKYSHHRNIATYYGAFIKKSPPGHDDQLWLVMEFCGAGSITDLVKNTKGNTLKEDWIAYISREILRGLAHLHIHHVIHRDIKGQNVLLTENAEVKLVDFGVSAQLDRTVGRRNTFIGTPYWMAPEVIACDENPDATYDYRSDLWSCGITAIEMAEGGPPLCDMHPMRALFLIPRNPPPRLKSKKWSKKFFSFIEGCLVKNYMQRPSTEQLLKHPFIRDQPNERQVRIQLKDHIDRTRKKRGEKDETEYEYSGSEEEEEEVPEQEGEPSSIVNVPGESTLRRDFLRLQQENKERSEALRRQQLLQEQQLREQEEYKRQLLAERQKRIEQQKEQRRRLEEQQRREREARRQQEREQRRREQEEKRRLEELERRRKEEEERRRAEEEKRRVEREQEYIRRQLEEEQRHLEILQQQLLQEQAMLLHDHRRPHAQQQPPPPQQQDRSKPSFHAPEPKPHYDPADRAREVQWSHLASLKNNVSPVSRSHSFSDPSPKFAHHHLRSQDPCPPSRSEGLSQSSDSKSEVPEPTQKAWSRSDSDEVPPRVPVRTTSRSPVLSRRDSPLQGGGQQNSQAGQRNSTSSIEPRLLWERVEKLVPRPGSGSSSGSSNSGSQPGSHPGSQSGSGERFRVRSSSKSEGSPSPRQESAAKKPDDKKEVFRSLKPAGEVDLTALAKELRAVEDVRPPHKVTDYSSSSEESGTTDEEEEDVEQEGADDSTSGPEDTRAASSPNLSNGETESVKTMIVHDDVESEPAMTPSKEGTLIVRQTQSASSTLQKHKSSSSFTPFIDPRLLQISPSSGTTVTSVVGFSCDGLRPEAIRQDPTRKGSVVNVNPTNTRPQSDTPEIRKYKKRFNSEILCAALWGVNLLVGTESGLMLLDRSGQGKVYPLISRRRFQQMDVLEGLNVLVTISGKKDKLRVYYLSWLRNKILHNDPEVEKKQGWTTVGDLEGCVHYKVVKYERIKFLVIALKSSVEVYAWAPKPYHKFMAFKSFGELLHKPLLVDLTVEEGQRLKVIYGSCAGFHAVDVDSGSVYDIYLPTHIQCSIKPHAIIILPNTDGMELLVCYEDEGVYVNTYGRITKDVVLQWGEMPTSVAYIRSNQTMGWGEKAIEIRSVETGHLDGVFMHKRAQRLKFLCGRNDKVFFSSVRSGGSSQVYFMTLGRTSLLSW

Variants of: B1
Conditions: with Ezr

Row | effect of a mutation on the interaction | Variant
1 | increasing interaction strength | D152N

— IntAct's records for PubMed 16938849
